Patent US20180230200A1 (CITY OF HOPE, published 2018)

Assays:
[1] = target: T1, gH/gL/UL128/UL130/UL131A pentamer complex expressed from MVA-PC in BHK-21 cells (human cytomegalovirus, UniProt P12824 24-743; P16832 31-278; P16837 28-171; P16772 1-214; F5HET4 19-129); experiment: FC, biotinylated NAb titrated on MVA-PC-infected BHK-21 (cell surface PC)
T1 construct: whole, on cells

[2] = target: T1, gH/gL/UL128/UL130/UL131A pentamer …; experiment: FC competition, MVA-PC BHK-21; unlabelled row Ab; competitor: biotinylated 1B2
[3] = target: T1, gH/gL/UL128/UL130/UL131A pentamer …; experiment: FC competition, MVA-PC BHK-21; unlabelled row Ab; competitor: biotinylated 13B5
[4] = target: T1, gH/gL/UL128/UL130/UL131A pentamer …; experiment: FC competition, MVA-PC BHK-21; unlabelled row Ab; competitor: biotinylated 54E11
[5] = target: T1, gH/gL/UL128/UL130/UL131A pentamer …; experiment: FC competition, MVA-PC BHK-21; unlabelled row Ab; competitor: biotinylated 21F6
[6] = target: T1, gH/gL/UL128/UL130/UL131A pentamer …; experiment: FC competition, MVA-PC BHK-21; unlabelled row Ab; competitor: biotinylated 18F10
[7] = target: gH/gL/UL128/UL130/UL131A pentamer complex (PC) of HCMV strain TR virus (human cytomegalovirus strain TR); experiment: cell-based or functional assay
[8] = target: gH/gL/UL128/UL130/UL131A pentamer complex (PC) of HCMV strain TB40/E virus (human cytomegalovirus strain TB40/E); experiment: cell-based or functional assay
[9] = target: T2, UL130 expressed from MVA in BHK-21 cells (human cytomegalovirus, UniProt P16772 1-214); experiment: intracellular FC, MVA-infected BHK-21
T2 construct: whole, on cells

[10] = target: T3, gH/gL co-expressed from MVA in BHK-21 cells (human cytomegalovirus, UniProt P12824 24-743; P16832 31-278); experiment: intracellular FC, MVA-infected BHK-21
T3 construct: whole, on cells

[11] = target: T4, gH expressed from MVA in BHK-21 cells (human cytomegalovirus, UniProt P12824 24-743); experiment: intracellular FC, MVA-infected BHK-21
T4 construct: whole, on cells

[12] = target: T5, UL131A expressed from MVA in BHK-21 cells (human cytomegalovirus, UniProt F5HET4 19-129); experiment: intracellular FC, MVA-infected BHK-21
T5 construct: whole, on cells

[13] = target: T6, UL128/UL130 co-expressed from MVA in BHK-21 cells (human cytomegalovirus, UniProt P16837 28-171; P16772 1-214); experiment: intracellular FC, MVA-infected BHK-21
T6 construct: whole, on cells

[14] = target: T7, UL128 expressed from MVA in BHK-21 cells (human cytomegalovirus, UniProt P16837 28-171); experiment: intracellular FC, MVA-infected BHK-21
T7 construct: whole, on cells
T7 sequence: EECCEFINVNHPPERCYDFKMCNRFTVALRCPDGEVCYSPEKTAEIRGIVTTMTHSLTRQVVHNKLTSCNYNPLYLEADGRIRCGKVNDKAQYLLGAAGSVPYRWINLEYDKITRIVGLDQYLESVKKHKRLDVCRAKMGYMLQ

[15] = target: T8, UL128/UL131A co-expressed from MVA in BHK-21 cells (human cytomegalovirus, UniProt P16837 28-171; F5HET4 19-129); experiment: intracellular FC, MVA-infected BHK-21
T8 construct: whole, on cells

[16] = target: T9, gH/gL/UL130 co-expressed from MVA in BHK-21 cells (human cytomegalovirus, UniProt P12824 24-743; P16832 31-278; P16772 1-214); experiment: intracellular FC, MVA-infected BHK-21
T9 construct: whole, on cells

[17] = target: T10, gH/gL/UL128/UL130 co-expressed from MVA in BHK-21 cells (human cytomegalovirus, UniProt P12824 24-743; P16832 31-278; P16837 28-171; P16772 1-214); experiment: intracellular FC, MVA-infected BHK-21
T10 construct: whole, on cells

[18] = target: T11, gH/gL/UL128/UL131A co-expressed from MVA in BHK-21 cells (human cytomegalovirus, UniProt P12824 24-743; P16832 31-278; P16837 28-171; F5HET4 19-129); experiment: intracellular FC, MVA-infected BHK-21
T11 construct: whole, on cells

[19] = target: T12, gH/gL/UL128 co-expressed from MVA in BHK-21 cells (human cytomegalovirus, UniProt P12824 24-743; P16832 31-278; P16837 28-171); experiment: intracellular FC, MVA-infected BHK-21
T12 construct: whole, on cells

[20] = target: T13, gH/gL/UL131A co-expressed from MVA in BHK-21 cells (human cytomegalovirus, UniProt P12824 24-743; P16832 31-278; F5HET4 19-129); experiment: intracellular FC, MVA-infected BHK-21
T13 construct: whole, on cells

[21] = target: T1, gH/gL/UL128/UL130/UL131A pentamer …; experiment: FC competition, MVA-PC BHK-21; unlabelled row Ab; competitor: biotinylated 12E2

B1: 54E11 (antibody, V domains shown)
VH: QIQLVQSGPELKKPGETVKISCKASGYTFTSYGMNWVKQAPGKGLKWMGWINTYTGEPTYADDFKGRFAFSLETSASTAYLQINNLKNEDTATYFCAREHYYGINPLLGCWGQGTTLTVSS
VL: DIQMTQTTSSLSASLGDRVTISCSASQGISNYLNWYQQKPDGTVKLLIYDTSSLHSGVPSRFSGSGSGTDYSLTISNLEPEDIATYYCQQYSKLPYTFGGGTKLEIK
notes: also called NAb 54E11
[1]
  EC50: 0.51 nM
[2]
  Binding Inhibition (%): 0%
[3]
  Binding Inhibition (%): 0%
[4]
  Binding Inhibition (%): 100%
[5]
  Binding Inhibition (%): 100%
[6]
  Binding Inhibition (%): 0%
[7]
  IC50, inhibition of TR cell-to-cell spread in ARPE-19: 18 µg/mL
  IC50, neutralization of TR infection of ARPE-19: 0.0034 µg/mL
  IC50, neutralization of TR infection of HUVEC: 0.0059 µg/mL
  IC50, neutralization of TR infection of MRC-5: > 25 µg/mL
[8]
  IC50, inhibition of TB40/E cell-to-cell spread in ARPE-19: 17 µg/mL
  IC50, neutralization of TB40/E infection of ARPE-19: 0.0034 µg/mL
  IC50, neutralization of TB40/E infection of CTB: 0.0249 µg/mL
  IC50, neutralization of TB40/E infection of HUVEC: 0.0046 µg/mL
  IC50, neutralization of TB40/E infection of MRC-5: > 25 µg/mL
[9]
  binding result: no binding
[10]
  binding result: no binding
[11]
  binding result: no binding
[12]
  binding result: no binding
[13]
  binding result: no binding
[14]
  binding result: no binding
[15]
  binding result: no binding
[16]
  binding result: no binding
[17]
  binding result: no binding
[18]
  binding result: no binding
[19]
  binding result: no binding
[20]
  binding result: no binding
[21]
  Binding Inhibition (%): 0%

B2: 21F6 (antibody, V domains shown)
VH: QIQLVQSGPELKKPGETVKISCKASGYTFTSYGMNWVKQAPGKGLKWMGWINTYTGEPTYADDFKGRFAFSLETSASTAYLQINNLKNEDTATYFCAREHYYGINPLLGCWGQGTTLTVSS
VL: DIQMTQTTSSLSASLGDRVTISCSASQGISNYLNWYQQKPDGTVKLLIYDTSSLHSGVPSRFSGSGSGTDYSLTISNLEPEDIATYYCQQYSKLPYTFGGGTKLEIK
notes: also called NAb 21F6
[1]
  EC50: 0.62 nM
[2]
  Binding Inhibition (%): 0%
[3]
  Binding Inhibition (%): 0%
[4]
  Binding Inhibition (%): 100%
[5]
  Binding Inhibition (%): 100%
[6]
  Binding Inhibition (%): 0%
[7]
  IC50, inhibition of TR cell-to-cell spread in ARPE-19: 19 µg/mL
  IC50, neutralization of TR infection of ARPE-19: 0.0035 µg/mL
  IC50, neutralization of TR infection of HUVEC: 0.0059 µg/mL
  IC50, neutralization of TR infection of MRC-5: > 25 µg/mL
[8]
  IC50, inhibition of TB40/E cell-to-cell spread in ARPE-19: 18 µg/mL
  IC50, neutralization of TB40/E infection of ARPE-19: 0.0026 µg/mL
  IC50, neutralization of TB40/E infection of CTB: 0.0307 µg/mL
  IC50, neutralization of TB40/E infection of HUVEC: 0.004 µg/mL
  IC50, neutralization of TB40/E infection of MRC-5: > 25 µg/mL
[9]
  binding result: no binding
[10]
  binding result: no binding
[11]
  binding result: no binding
[12]
  binding result: no binding
[13]
  binding result: no binding
[14]
  binding result: no binding
[15]
  binding result: no binding
[16]
  binding result: no binding
[17]
  binding result: no binding
[18]
  binding result: no binding
[19]
  binding result: no binding
[20]
  binding result: no binding
[21]
  Binding Inhibition (%): 0%
